Assay results taken from patent US20230357343A1.
Where two headings read alike, the source gives them in different places.

Assays:
[1] = biological target: keyhole limpet hemocyanin; experiment: polyreactivity ELISA
[2] = biological target: keyhole limpet hemocyanin; experiment: polyreactivity ELISA; remark: listed apart in the source

Binding to KLH (normalised A450) [1]: 24.4
Binding to KLH (normalised A450) [2]: 47.1
Substance: Bococizumab (antibody)
